Series [1] addresses T1, SfiI endonuclease wt (UniProt O52512 1-269).
T1 sequence: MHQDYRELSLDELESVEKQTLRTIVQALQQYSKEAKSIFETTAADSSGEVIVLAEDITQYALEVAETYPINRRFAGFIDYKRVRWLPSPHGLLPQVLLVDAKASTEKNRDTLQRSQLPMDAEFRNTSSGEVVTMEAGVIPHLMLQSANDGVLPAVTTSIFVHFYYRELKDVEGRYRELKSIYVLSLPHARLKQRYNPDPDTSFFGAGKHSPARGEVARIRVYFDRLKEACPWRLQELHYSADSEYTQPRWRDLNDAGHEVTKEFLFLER
In words: competition.

Series [2] addresses T2, SfiI D79A (UniProt O52512 1-269, D79A).
T2 sequence: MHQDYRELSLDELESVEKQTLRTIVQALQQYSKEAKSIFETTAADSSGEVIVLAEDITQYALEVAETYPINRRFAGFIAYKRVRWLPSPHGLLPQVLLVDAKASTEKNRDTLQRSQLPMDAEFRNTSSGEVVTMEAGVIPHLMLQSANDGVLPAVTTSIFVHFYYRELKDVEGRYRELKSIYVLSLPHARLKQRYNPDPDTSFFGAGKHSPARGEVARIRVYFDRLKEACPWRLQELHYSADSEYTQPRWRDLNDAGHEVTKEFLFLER
In words: competition.

Series [3] addresses T3, SfiI D100A (UniProt O52512 1-269, D100A).
T3 sequence: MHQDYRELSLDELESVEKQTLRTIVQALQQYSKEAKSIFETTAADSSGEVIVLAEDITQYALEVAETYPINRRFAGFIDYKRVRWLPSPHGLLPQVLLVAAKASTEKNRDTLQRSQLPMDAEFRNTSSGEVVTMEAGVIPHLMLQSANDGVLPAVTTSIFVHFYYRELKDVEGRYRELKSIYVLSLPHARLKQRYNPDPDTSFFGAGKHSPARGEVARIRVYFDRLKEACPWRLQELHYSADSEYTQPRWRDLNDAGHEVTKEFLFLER
Description: competition.

The series “AUC” concerns the molecule itself. In words: AUC.
Series [4] concerns the target T3, SfiI D100A. In words: EMSA.
Series [5] concerns the target T1, SfiI endonuclease wt. Description: EMSA. (In general: In EMSA bound probe runs differently from free probe, usually more slowly.)
Series [6] addresses T2, SfiI D79A. Description: EMSA.

One may read the stoichiometry N as a count of units in the complex or per binding partner. Usually Kd stands for the equilibrium constant for the complex coming apart.

B1: C-21 (dsDNA)
DNA 1: ATGTGGCCAACAAGGCCTATT
DNA 2: AATAGGCCTTGTTGGCCACAT
As to B1, the binding result with SfiI endonuclease wt [1], with SfiI D79A [2] and in the series with SfiI D100A [3] was “binds” in each case.

B2: SfiI restriction endonuclease D79A mutant (enzyme)
chain: MHQDYRELSLDELESVEKQTLRTIVQALQQYSKEAKSIFETTAADSSGEVIVLAEDITQYALEVAETYPINRRFAGFIAYKRVRWLPSPHGLLPQVLLVDAKASTEKNRDTLQRSQLPMDAEFRNTSSGEVVTMEAGVIPHLMLQSANDGVLPAVTTSIFVHFYYRELKDVEGRYRELKSIYVLSLPHARLKQRYNPDPDTSFFGAGKHSPARGEVARIRVYFDRLKEACPWRLQELHYSADSEYTQPRWRDLNDAGHEVTKEFLFLER
In the case of B2, the “stoichiometry N” value in “AUC” was determined as 4.

B3: SfiI restriction endonuclease D100A mutant (enzyme)
chain: MHQDYRELSLDELESVEKQTLRTIVQALQQYSKEAKSIFETTAADSSGEVIVLAEDITQYALEVAETYPINRRFAGFIDYKRVRWLPSPHGLLPQVLLVAAKASTEKNRDTLQRSQLPMDAEFRNTSSGEVVTMEAGVIPHLMLQSANDGVLPAVTTSIFVHFYYRELKDVEGRYRELKSIYVLSLPHARLKQRYNPDPDTSFFGAGKHSPARGEVARIRVYFDRLKEACPWRLQELHYSADSEYTQPRWRDLNDAGHEVTKEFLFLER
Take B3: the “stoichiometry N” value in “AUC” stood at 4.

B4: HEX-35 (dsDNA)
DNA 1: TCGATCCATGTGGCCAACAAGGCCTATTTGTCGAT
DNA 2: ATCGACAAATAGGCCTTGTTGGCCACATGGATCGA
B4: the Kd with SfiI D100A [4], in the series with SfiI endonuclease wt [5] and in the series with SfiI D79A [6] was below 10 nM throughout.

Source of the values: paper PMC2760798 (Nucleic Acids Research, 2009).
